Results reported in the supplement of paper PMC12042874.
± gives the uncertainty stated by the source.

Assay: amyloid nucleation score (Sup35N fusion, yeast selection) (log enrichment); library NNK2; higher = more nucleation; inactive = no reads after selection
Outline: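 Three technical output replicates were used for random libraries. Psi-negative yeast expressing peptides of 20 random codons fused to Sup35N were induced with 100 μM copper sulfate for 24 hours and grown 7 days at 30°C on medium lacking adenine and uracil, and input and output plasmid inserts were Illumina-sequenced, excluding sequences with under 100 input reads. The nucleation score is the DiMSum log enrichment of output over input reads, centred on the mode score of non-aggregating sequences.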

Row | Substance | amyloid nucleation score
1 | LIIVMTLPYFGTSAM | 0.362 ± 0.3
2 | LILGLRGPLPCMLHNSGTYL | 0.19 ± 1.1
3 | LILGYFRKELFKNASFVLNF | 4.05 ± 0.066
4 | LILLY | -0.277 ± 1
5 | LILRCLC | 0.235 ± 0.8
6 | LITQKHFTRVTNMPIRLCSL | -0.491 ± 0.41
7 | LIVVKCLSRRYCFCLLSVVV | 0.303 ± 0.32
8 | LIYITVGRLQHGALCFLGKC | 0.148 ± 1
9 | LKAWYYSVYSRTVTYSPMLH | -1.03 ± 0.61
10 | LKCHVLGVHCAL | 0.205 ± 0.19
11 | LKCPGLTREGLSPYKSSLPN | -0.202 ± 1
12 | LKEHYF | -1.44 ± 0.55
13 | LKGQYWVLRKGGCEGGLSAG | 1.81 ± 0.45
14 | LKLYDKAR | 0.213 ± 0.55
15 | LKMGVGCRGRLLWCSLTCMR | 1.46 ± 0.31
16 | LKNKSPCSR | 0.039 ± 0.29
17 | LKNNNQETGIEFYIFREHRD | 4.22 ± 0.047
18 | LKRRPFDAFNVRMVLVNECG | inactive
19 | LKSDRSLMLIEPALDLIWYF | -0.27 ± 1.1
20 | LKSEALDGAADCRGCYSGPL | 0.374 ± 0.64
21 | LKSKVTLSYYSIVPAISVYE | inactive
22 | LKVAVLVSGLGLA | 0.54 ± 0.46
23 | LKYDSKPSRVWMEICLYDAR | 7.192 ± 0.054
24 | LLEFWDHLVYSMIECNRKNV | inactive
25 | LLFIICTDSFRLPTANGELY | -1.17 ± 0.41

Row | Substance | amyloid nucleation score
26 | LLFLAG | -0.358 ± 0.79
27 | LLFMSSNIFDMCREFDRC | inactive
28 | LLFMVIFDRECRVIIHCGTM | -0.21 ± 0.34
29 | LLFQNLIRRLCSMCQFGGCV | -0.531 ± 0.46
30 | LLFVCVFYVYSSPDNHILAM | -0.633 ± 1.1
31 | LLHSSYIIK | 0.115 ± 1
32 | LLIFGVVLRVMNVVDPIRDI | -1.13 ± 0.55
33 | LLIINIEMYRCNRLLYIDNN | 3.15 ± 0.097
34 | LLITR | -0.183 ± 1
35 | LLLGTSVDVFL | 0.07 ± 0.74
36 | LLLLWYRNQPHITDAFRQEL | 0.733 ± 0.44
37 | LLNFMCIYYEWFQRSAEHAT | -0.605 ± 0.76
38 | LLNYTRGACCDRTRVQFSTT | -0.079 ± 0.76
39 | LLQKFVMGGEVRRESGGVRC | 0.726 ± 0.25
40 | LLRAT | 0.598 ± 0.23
41 | LLRILANQLKYYETTLCVGG | -0.27 ± 1.1
42 | LLSPYMLRLMV | -0.299 ± 0.79
43 | LLSSFIALSWCWRWFKHSS | 4.972 ± 0.045
44 | LLSVASRLLVPFRERGNGS | -0.256 ± 1.1
45 | LLVAKYNLEYRMLSCSDNRQ | 3.1 ± 0.17
46 | LLYHVGSTMGKPIYN | -0.669 ± 1
47 | LMALTPIVVVYIMGSMDLST | -0.436 ± 1.1
48 | LMCNKESSNPICGLWVCFWA | 9.489 ± 0.037
49 | LMCTSAKSADMSH | 0.992 ± 0.6
50 | LMFMLRYPLHASWLGSTHVY | 0.422 ± 0.44

Row | Substance | amyloid nucleation score
51 | LMIVKMTMFDATGHVGFLMV | 2.82 ± 0.071
52 | LMLLYIRSKYGEFVWIPKVH | -0.021 ± 0.54
53 | LMLTCKLSFPGLVNLSCSPI | -0.84 ± 0.34
54 | LMLVVQALNHAYLLQVMSCT | 0.805 ± 0.67
55 | LMPDSCSNPRWKTEVLTIRG | -0.199 ± 1.1
56 | LMSQCT | -0.926 ± 0.64
57 | LMTSYLRSPDSAPETLRE | -0.484 ± 0.49
58 | LNALIHYVER | 0.842 ± 0.42
59 | LNCYFGHRDPIFSRMNICDY | -0.469 ± 1.1
60 | LNDGPEGTCWSPNGVNSLLH | -0.382 ± 0.76
61 | LNDHNFLCPLTYKVRRLYNN | -1.53 ± 0.53
62 | LNFIRCYVSPCVSFLSLYII | inactive
63 | LNFWLHD | 0.09 ± 1
64 | LNHGNMEYWLSMDVINLSQI | 0.238 ± 0.3
65 | LNHKDICFARNLVRVREGHN | 0.809 ± 0.38
66 | LNILHNFRKRTLFAAMFVLR | inactive
67 | LNISFSDSLSRLVV | -0.935 ± 1.1
68 | LNLLK | -1.18 ± 1.1
69 | LNMVLDF | inactive
70 | LNQNPLFTN | -0.11 ± 0.76
71 | LNRDFMVHLSCGTWPSARKW | 0.067 ± 0.5
72 | LNSMTILLSN | 0.54 ± 0.56
73 | LNTTLLTRPVLSSYRGSTAE | 1.23 ± 0.45
74 | LNVDGAFGKTAWYFRFVIQV | -0.127 ± 1
75 | LNVGPQGYMCGSPLYDHCG | 2.73 ± 0.076

Row | Substance | amyloid nucleation score
76 | LPFMECC | -0.696 ± 1
77 | LPGQGIWWHICIEG | 1.24 ± 0.14
78 | LPNRVNDRDAEYHVMLLCK | 0.095 ± 0.27
79 | LQASIIAMVRGRTNDSFLED | 2.7 ± 0.21
80 | LQCYPWIYGGSGHPYRFWNL | -0.331 ± 0.8
81 | LQHYDLGSCSCRWVLVTSDK | 0.584 ± 0.22
82 | LQMPVVF | -0.577 ± 0.26
83 | LQSTILIYVVNFFTTGIMGK | 1.75 ± 0.11
84 | LQVVVMFCPSL | 8.29 ± 0.024
85 | LRAGLMHGWMRFRCTRVACV | -0.914 ± 0.64
86 | LRFMNPRSALRYTKVSCTGN | -0.587 ± 0.54
87 | LRKALIDAFRT | 2.18 ± 0.066
88 | LRKIYFWWAATNALLEMRGW | 0.057 ± 0.38
89 | LRKPSTIFEHDAKNSRV | -0.67 ± 0.79
90 | LRMHFMMWTRRVNLVRHGNN | inactive
91 | LRNFSYIRQGGSRVSSASGY | -1.18 ± 1.1
92 | LRNGVPDADASSRYFWAAEW | 0.712 ± 0.24
93 | LRQGPTHFLYLGCYFVDAMR | 7.119 ± 0.066
94 | LRRKEVKWLCL | 0.754 ± 0.47
95 | LRSGGLFRDIMCRRDYVRCF | 1.23 ± 0.32
96 | LRSLINCYAKVICRTYRFVG | -0.885 ± 0.61
97 | LRSQSHR | 1.31 ± 0.33
98 | LRSWEGLSQAWRPCCVILHN | 0.48 ± 0.34
99 | LRTSSSYSFLEYIRS | -1.08 ± 1
100 | LRVGSCNVTSLMGNLVGLDS | 1.37 ± 0.42

Row | Substance | amyloid nucleation score
101 | LRVMSSISDDNAQEFDDFCV | 3.75 ± 0.062
102 | LRVQGGWL | 1.49 ± 0.34
103 | LRYNADMVGCKFWWIPVWSL | -0.843 ± 0.42
104 | LRYRVMT | 1.23 ± 0.52
105 | LSAKWCTECNLAASRRLNIN | 0.034 ± 0.32
106 | LSDAMILNLRAIFSSISLLQ | -0.86 ± 0.78
107 | LSDCE | inactive
108 | LSDFEIFTLTIHSHLYHN | 1.66 ± 0.24
109 | LSEFDHYDWVSSSTLFGFCC | -1.13 ± 1.1
110 | LSESRRQVASASDLMKRRIP | 1.24 ± 0.66
111 | LSFFSLSIQSCMHGSLKIDS | -0.294 ± 1.1
112 | LSFLKVW | -0.654 ± 0.36
113 | LSFPHVLYFETCPCMARVVA | -0.081 ± 1.1
114 | LSGLRSFLRRWRGQVKPVLV | -0.133 ± 1
115 | LSGSY | -0.305 ± 1.1
116 | LSHEFMIEW | -0.19 ± 0.62
117 | LSKHPYGCVL | 0.862 ± 0.66
118 | LSMEVRGMVATMVVTWNFVS | 0.07 ± 0.32
119 | LSRWKDRSRGWRGDAAPRIR | 0.539 ± 0.56
120 | LSSVILVLNNSVAFYILDAG | 3.83 ± 0.09
121 | LSTCCVKVVVCRDFIIVDKF | 6.57 ± 0.039
122 | LSVCLHHHNIAWDRCSGR | -0.469 ± 0.37
123 | LSVSDEVRQV | -0.466 ± 0.79
124 | LSYYKVIWGHLMVKYPTYRQ | -0.177 ± 0.32
125 | LTAGVYSSSWSDVS | 1.4 ± 0.14

Row | Substance | amyloid nucleation score
126 | LTATFTNMGCTTGSKCLM | inactive
127 | LTATLAFLVSCFYCSL | 6.95 ± 0.028
128 | LTCLFPFWRWCIPAAIEFRR | 0.901 ± 0.28
129 | LTEDTMFG | -0.573 ± 0.76
130 | LTEVVMAILFSDDSRYIFCG | 1.41 ± 0.16
131 | LTFGCG | -0.903 ± 0.36
132 | LTFLYGVGVRFCRPSLVVQS | 0.2 ± 0.24
133 | LTGCAKLGSLKLSLAPVYVD | 0.811 ± 0.82
134 | LTGLFAGLKGKCLFTVNRGI | -0.318 ± 0.44
135 | LTLCSFRCTKLMR | 1.11 ± 0.25
136 | LTLHAVWI | -0.022 ± 0.27
137 | LTMLPDNVPTKALFSYLSVT | -1.24 ± 0.76
138 | LTPEFSVCGCRTEG | 2.65 ± 0.072
139 | LTPLICADNLD | -0.526 ± 0.35
140 | LTPNCGKVGGRMRGRILSGV | 0.787 ± 0.3
141 | LTRRVGIFFHFG | 4.74 ± 0.05
142 | LTTSFANAWHFNFLGRPLH | 2.18 ± 0.18
143 | LTYLVADLL | -0.142 ± 0.79
144 | LVAALRV | -0.452 ± 0.39
145 | LVAHPLYGSTKWGN | -0.596 ± 0.79
146 | LVCYLMTMNSNGARSRGVPF | 5.99 ± 0.063
147 | LVFRGAVCDITRAG | -0.682 ± 0.76
148 | LVFTCGWSDTRE | 5.08 ± 0.089
149 | LVHYFICHVPFLIFRYDKVT | inactive
150 | LVKCRGATCLIVTSDRLLYV | inactive

Row | Substance | amyloid nucleation score
151 | LVKCSVSVRGEILRFLRYMA | 0.26 ± 0.22
152 | LVNSKYDLGSSGSFDNRFAC | -0.242 ± 0.63
153 | LVQMISKILYNEE | inactive
154 | LVQMLVSV | -0.342 ± 1
155 | LVRGMDFHLNLDEKFFSATL | -1.05 ± 0.56
156 | LVRVGDFG | -0.267 ± 0.54
157 | LVSFGPLMDQGSCIALHSRR | 0.162 ± 0.31
158 | LVSFRKPILTSQ | 0.164 ± 0.8
159 | LVSVVNMVADSSRKSSQGEL | 4.875 ± 0.039
160 | LVSYSDVGWPLYWFCSVRVP | 1.24 ± 0.2
161 | LVTARQLARI | 0.121 ± 0.24
162 | LVVVRMGGIGLESFVAHGEV | 0.524 ± 0.35
163 | LVVWPMNQPLPLSNRPTPKR | 1.83 ± 0.3
164 | LVWIEMVSF | -0.544 ± 0.78
165 | LVYVWKDLAYMVLLHFRLFL | -1.16 ± 1.1
166 | LWFGRSCGFGIGVYYRRPSL | -0.213 ± 0.48
167 | LWFGTIHNNTVGSNIDFTFT | 4.71 ± 0.092
168 | LWGFMCFFW | -1.41 ± 0.29
169 | LWIIPQELGLCLMCGVVCCV | -1.41 ± 0.75
170 | LWLLMYGSW | 2.4 ± 0.1
171 | LWLVYSESWSMYAMS | 1.19 ± 0.12
172 | LWMCKTFYGAGLSPVVK | -0.038 ± 1
173 | LWMVFSGNALEKYSSDFCHC | -1.22 ± 0.78
174 | LWVSSSLSL | -0.74 ± 0.45
